B6: BAF60A^YLD+SWIB (BAF60A residues 144-407) (domain or fragment, human, UniProt Q96GM5 144-407, looked up)
chain: SQAYMDLLAFERKLDQTIMRKRLDIQEALKRPIKQKRKLRIFISNTFNPAKSDAEDGEGTVASWELRVEGRLLEDSALSKYDATKQKRKFSSFFKSLVIELDKDLYGPDNHLVEWHRTATTQETDGFQVKRPGDVNVRCTVLLMLDYQPPQFKLDPRLARLLGIHTQTRPVIIQALWQYIKTHKLQDPHEREFVICDKYLQQIFESQRMKFSEIPQRLHALLMPPEPIIINHVISVDPNDQKKTACYDIDVEVDDTLKTQMNSF

For assay [1], the target named is B6. In words: ITC.
The target of assay [2] is B6. In words: fluorescence polarisation. Background: Fluorescence polarisation rises when a labelled molecule tumbles more slowly, as on binding a larger partner.
The target of assay [3] is B6. In words: fluorescence polarisation. The source holds these as a separate data set.
Assay [4] deals with MBP-tagged full-length PU.1 (human, UniProt P17947 1-270). Kind of assay: ITC. In general terms: In ITC the heat of successive injections is recorded.
The target of assay [5] is PU.1[61–270] (human, UniProt P17947 61-270). Kind of assay: ITC.
Assay [6] addresses PU.1^FL S75A (human, UniProt P17947 1-270, S75A). In words: fluorescence polarisation.

B1: PU.1[60–100] (peptide, UniProt P17947 60-100, looked up)
chain: SEFESFAENNFTELQSVQPPQLQQLYRHMELEQMHVLDTPM
In assay [1], B1 came in with a Kd of 1250 nM.

B2: PU.1^60C-100 (peptide, UniProt P17947 60-100, looked up)
chain: CEFESFAENNFTELQSVQPPQLQQLYRHMELEQMHVLDTPM
Turning to B2, the binding result in assay [2] is “binds”.

B3: PU.1[60–100]^TMR (peptide, UniProt P17947 60-100, looked up)
chain: CEFESFAENNFTELQSVQPPQLQQLYRHMELEQMHVLDTPM
modifications: BODIPY TMR C5 maleimide on the cysteine introduced at position 60
For the molecule B3, the Kd in assay [3] was found to be 920 nM.

B4: PU.1[70–100] (peptide, UniProt P17947 70-100, looked up)
chain: FTELQSVQPPQLQQLYRHMELEQMHVLDTPM
B4 came in with a Kd in assay [1] of 2570 nM. Moreover, in assay [2], inhibition was half-maximal at 2370 nM (IC50).

B5: PU.1[1–117] (domain or fragment, human, UniProt P17947 1-117, looked up)
chain: MLQACKMEGFPLVPPPSEDLVPYDTDLYQRQTHEYYPYLSSDGESHSDHYWDFHPHHVHSEFESFAENNFTELQSVQPPQLQQLYRHMELEQMHVLDTPMVPPHPSLGHQVSYLPRM
Regarding B5, binding in assay [1] was characterised by a dissociation constant (Kd) of 2800 nM.

In the case of B6, in assay [4], binding was characterised by a dissociation constant (Kd) of 1260 nM and the “stoichiometry N” value was 1. In assay [5], this molecule displayed a Kd of 3230 nM. The binding result in assay [6] is recorded as “binds”.

A word on the Kd: it is the equilibrium constant for the complex coming apart. A low value points to a tighter complex. The IC50 is the concentration at which inhibition is half-maximal. The term stoichiometry N denotes a count of units in the complex or per binding partner.

The values above are taken from paper doi:10.1101/2025.08.01.667454 (bioRxiv, 2025).
